# Bridges are numbered along the chain shown (N, C = ends). [ ]: non-standard residue; d: D form. Ahx = NCCCCCC(=O)O; βAla = NCCC(=O)O
# B1: [99mTc(N)(NAP-NS1)(PNP3)]+ (peptide)
# chain: CXXXDHFRWG
# modifications: Ahx at 2, βAla at 3, Nle at 4 (each written X); D-Phe at 7; C-terminal amide; [99mTc(N)(PNP3)] label (PNP3 = N,N-bis(dimethoxypropylphosphinoethyl)methoxyethylamine)
# B2: NAP-NS1, linear H-Cys-Ahx-βAla-Nle-Asp-His-D-Phe-Arg-Trp-Gly-NH2 (peptide)
# chain: CXXXDHFRWG
# modifications: Ahx at 2, βAla at 3, Nle at 4 (each written X); D-Phe at 7; C-terminal amide
# B3: NAP-NS2, lactam bridge-cyclized H-Cys-Ahx-βAla3-c[Lys4-Glu-His-D-Phe-Arg-Trp-Glu10]-Arg11-Pro-Val-NH2 (peptide)
# chain: H-C[Ahx][βAla]KEH[dF]RWERPV-NH2
# modifications: lactam 4-10
# SMILES: CC(C)[C@H](NC(=O)[C@@H]1CCCN1C(=O)[C@H](CCCNC(=N)N)NC(=O)[C@@H]1CCC(=O)NCCCC[C@H](NC(=O)CCNC(=O)CCCCCNC(=O)[C@@H](N)CS)C(=O)N[C@@H](CCC(=O)O)C(=O)N[C@@H](Cc2c[nH]cn2)C(=O)N[C@H](Cc2ccccc2)C(=O)N[C@@H](CCCNC(=N)N)C(=O)N[C@@H](Cc2c[nH]c3ccccc23)C(=O)N1)C(N)=O
# Key:
# MC1R [1] = target: T1, MC1R (mouse (endogenous in B16/F10), UniProt Q01727 1-315); assay: radioligand binding; receptor affinity (Kd) of the 99mTc-labelled peptide; B16/F10 melanoma cells are the only cells named; settings: one partner purified
# T1 construct: also called MCR1R
# MC1R [2] = target: T1, MC1R; assay: radioligand binding; MC1R binding affinity (Ki) of the unlabelled peptides determined in B16/F10 melanoma cells; the competing ligand is not named; settings: one partner purified
# T1 sequence (Q01727 whole entry): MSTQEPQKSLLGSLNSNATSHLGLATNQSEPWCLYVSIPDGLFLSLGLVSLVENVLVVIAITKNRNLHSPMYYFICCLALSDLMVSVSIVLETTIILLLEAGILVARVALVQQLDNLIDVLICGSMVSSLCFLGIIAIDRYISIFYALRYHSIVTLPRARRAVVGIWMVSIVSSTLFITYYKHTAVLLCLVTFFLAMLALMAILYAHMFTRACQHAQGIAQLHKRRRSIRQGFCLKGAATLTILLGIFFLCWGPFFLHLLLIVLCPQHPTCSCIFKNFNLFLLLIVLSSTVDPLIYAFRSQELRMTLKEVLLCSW
Binder,Kd (MC1R [1]),Ki (MC1R [2])
B1,7.1 ± 0.5 nM,–
B2,–,0.9 ± 0.3 nM
B3,–,7.1 ± 2.4 nM

# Source: paper PMC5843810 (EJNMMI Radiopharmacy and Chemistry, 2016)
